Consider seven molecules from paper PMC8551123, “Pentose degradation in archaea: Halorhabdus species degrade D-xylose, L-arabinose and D-ribose via bacterial-type pathways” (Extremophiles, 2020).

The target in data set [1] is Ribokinase of Halorhabdus tiamatea (HTIA_0439) (Halorhabdus tiamatea). In words: SEC; Superdex 200 HiLoad column (1.6 by 60 cm), flow rate 1 ml/min, calibrated with the HMW and LMW kits; oligomeric state from the native mass and the calculated subunit mass.
In data set [2] the target is Ribose-5-phosphate isomerase of Halorhabdus utahensis (Huta_0832) (Halorhabdus utahensis). The description is as above.
Substrate in data set [3]: Nc1ncnc2c1ncn2[C@@H]1O[C@H](COP(=O)(O)OP(=O)(O)OP(=O)(O)O)[C@@H](O)[C@H]1O
The experiment in a line: coupled pyruvate kinase/lactate dehydrogenase assay (NADH). In kind it is biochemical, Halorhabdus tiamatea. The note with it: D-ribose co-substrate (5 mM standard), 42 °C, pH 7.5 bis-tris, 1.5 M KCl, 10 mM MgCl2.

Substrate in data set [4]: Nc1ncnc2c1ncn2[C@@H]1O[C@H](COP(=O)(O)OP(=O)(O)OP(=O)(O)O)[C@@H](O)[C@H]1O
The data set is described as above. The format is biochemical, Halorhabdus utahensis. The following applies: 37 °C.

Substrate in data set [5]: O=C(CO)[C@@H](O)[C@@H](O)CO
Described as above. In kind it is biochemical, Halorhabdus utahensis. The note with it: ATP co-substrate (10 mM standard), 37 °C, pH 8.0, 1.5 M KCl, 50 mM MgCl2.

Data set [6] concerns the molecule itself. The experiment in a line: SEC; Superdex 200 HiLoad column (1.6 by 60 cm), flow rate 1 ml/min, calibrated with the HMW and LMW kits; oligomeric state from the native mass and the calculated subunit mass.
Substrate in data set [7]: O=C(CO)[C@@H](O)[C@H](O)CO
In words: coupled pyruvate kinase/lactate dehydrogenase assay (NADH). The note with it: ATP co-substrate (12.5 mM standard), 37 °C, pH 8.0, 2 M KCl, 10 mM MgCl2. The format is biochemical, Halorhabdus utahensis.

The term stoichiometry N denotes the number of molecules, sites or subunits per partner or assembly. As to “Ribokinase of Halorhabdus tiamatea (HTIA_0439) (enzyme)”, the stoichiometry N in data set [1] is 2.
On to “Ribose-5-phosphate isomerase of Halorhabdus utahensis (Huta_0832) (enzyme)”, for which the stoichiometry N in data set [2] was 4.

B1: ribokinase (HTIA_0439) (Halorhabdus tiamatea SARL4B) (protein)
chain: MGNVYVAGSINQDIAVRLERRPQPGETVPGESASFGLGGKGANQAIAAARSGAAVELIGAVGDDRFGEELLADLDTEDGLSTAGVHRASNTSTGVALITVDADSENAIVAVPGANAALAPADVGDVGMEDDAVVLSQFEIPQPTIRTFFEQAHAQGARTVLNPAPAETVREDLLERVDFLVVNETEALFYADGDSKGQLSQDELVETAAALRTHDEQVVVVTLGEAGVFASTPSETIELDAYAVDPVDTTGAGDAFVGAFATALGDGLRLRDALDVGAAAGALATTQTGAAPSLPTRAAIEDLRADE
notes: full length, overexpressed, recombinant (Haloferax volcanii H1209, pTA963, His tag by general methods)
In general, Km refers to the substrate concentration at which the rate is half of its maximum. B1: in data set [3], the Km came to 100 µM.

B2: Ribulokinase of Halorhabdus utahensis (Huta_1150) (enzyme, UniProt C7NMB8 1-512, looked up)
chain: MDGQYLVGTDIGTNSTKTILVSPEGEVLGTGNAGYEVEQPEPSWAQQWPDVWVEATYDSIQQAIDEAEVDPSEIRGISISSLYGGAGVPLDSEGEPVYPCLIWMDRRATDQVEWVKENVDLDRLFEITGNYVDSYYGYTKIRWIKEHEPEVWDDIENFVPPNNYVEYVMTDELAVDYSSAGNVGGVFDIHDLAWSEEACEMLEIPIEKFPERLVPTEEIVGEVTADAAEASGLPEGTPVLAGGVDAPMATLAAGAFEEGDNVSMMGTSTCWGTIHEGAGLDQQLVSMPHVAEGEEKIYTWGGSATTGGLIEWFKDEFGGPEEQAGELVDVDPFELLNMKAEEIPAGSEGLVALPYFKGERSPIWDPDARGMFTGLSLYHGKSHMYRALMEAGGYSLRHNVEVAEEIGIPLNDETSVVGGVSNSELWMQILADVTGRRMEVPAGGVGAPLGDALVVGVGTGLFEDYDVATEWTETGEVYTPEPENVDTYDEYYDIYKRLYQNTKDEMHDLAQL
notes: ribulokinase, Halorhabdus utahensis, gene Huta_1150 (1539 nucleotides); calculated subunit mass 56.1 kDa; Gene amplified from genomic DNA and cloned into pTA963; also called L-ribulokinase; source: Haloferax volcanii H1209, purified (Ni-NTA, size-exclusion chromatography)
For the molecule B2, the Km in data set [4] (L-ribulose co-substrate (1 mM standard), pH 8.0, 1.5 M KCl, 50 mM MgCl2) came to 4200 µM; in data set [5] it was 550 µM. For the same molecule, the “stoichiometry N” value in data set [6] is 6.

B3: Arabinose isomerase of Halorhabdus utahensis (Huta_1154) (enzyme, UniProt C7NML7 1-495, looked up)
chain: MSPIPHGTDFDDLEVWFLTGSQHLYGEETLDLVAEDAREVAAGLDDDDRIPVSVEFKSVLTTADAIESVVREANASEDCIGLITWMHTFSPAKMWIRGLQALDVPFVHLHTQFNRELPYDEIDMDFMNANQSAHGGREFGHIVSRLDIDRKVVVGHWEDDDVREQLDTWARAAAARHELRGAKIARFGDNMRDVAVTEGDKVSAQMAFGASVDGYGLGDLVEFVEDVTESEIDDLLEEYDQQYELAAELQADGDRRDSLREAARIELGIRAFLEDGEFVGFTTTFENLTGLSQLPGLAVQRLMADGYGFGPEGDWKSALLTRAMKVMGQGLNGGTSLMEHYTYDLTEGDEKVLGAHMLEICESIAGEQPRLEIHPLDIGGKADPVRAVFDADTGPAINASLVDMGDRFRLITNDVESVGPDEPLPELPVARAVWKPEPDFETAIEAWIKAGGAHHTGYSQAVTNEHLEDFASMTGIEHLHVGADTDIADVERKLS
notes: arabinose isomerase, Halorhabdus utahensis, gene Huta_1154 (1488 nucleotides); calculated subunit mass 55.4 kDa; Gene amplified from genomic DNA and cloned into pTA963; source: Haloferax volcanii H1209, purified (Ni-NTA, size-exclusion chromatography)
Consider B3, for which, in data set [6], the “stoichiometry N” value is 6.

B4: Xylose isomerase of Halorhabdus utahensis (Huta_2443) (enzyme, UniProt C7NMH0 1-438, looked up)
chain: MSEYFPEIDEITYEGPDSQDPLSFSYYDPEKQVGEKTMAEHLRFSVAYWHTLREDGSDPFGAGTMQRPWDDIDDPMEKAHARVDAAFEFFEKLGVPYFCFHDRDIAPKGEDLAESNENLDEIVDHVEEKIDETGVELLWGTAQLFMEPKFAHGAATSPNPDVFAHAAGQVKKAMEVTERLGGENFVFWGGREGYKTLLNSDMGRELDNMGRFFRMAADYADDIGFDGQLLIEPKPKEPTKHQYDFDAANVMAFLREYGLEDRFNLNLEANHATLAGHTFRHELQYARVNDALGSVDANQGDKLIGWDTDEFPTDVYMTTLAMYEVLENDGIAPGGLNFDAKVRRESFEPVDLFYGHVVGMDTFARGLEVAHELREDGVFADVIDDRYGYDAGIGAEIAAESTDFEALAEYALENDGIELESGRQEKLKAVLNSYILES
notes: xylose isomerase, Halorhabdus utahensis, gene Huta_2443 (1317 nucleotides); calculated subunit mass 49.3 kDa; Gene amplified from genomic DNA and cloned into pTA963; Elution from Ni-NTA implies a His tag; also called class II xylose isomerase; source: Haloferax volcanii H1209, purified (Ni-NTA, size-exclusion chromatography)
For B4, the “stoichiometry N” value in data set [6] is 4.

B5: Xylulokinase of Halorhabdus utahensis (Huta_2446) (enzyme, UniProt C7NMH3 1-515, looked up)
chain: MGLDLGTSGVKTLVADADGEVLATNTEEYPLYQPEVGWSEQDPADWWAATLDGIEAVLEDPAVDPEDVEALGLTGQMHGSVFLDGEGEVLRPAILWNDTRTSAQCDEIEERVGEDRIIELASNPPFEGFTAPKILWVQEHEPEVYDQTESILLPKDFIRYKLTEAFATDVSDASGTLLLDVGERDWSPEILDELDISRDLLPEVYESPEVTGAVTDAVAERTGLPAGTPVVAGAGDNAAGAVGSGVVGDGDVWGSIGTSGVIFVATDDERTDPEGRVHTFCHAVPDTWHVMGVMLSAGGAFSWFSETLGGPEEVVADQLGKDAFEVLTDEAATVDPGSEGLIFLPYLNGERTPHRDADARGAFFGLSTRHDKSHVVRSVLEGVTYGLRDSFRIVRDDLGVDTGQLKAAGGGAKSPLWKQIQADIFDAEILTPNVDEGPAYGSALLAGVGADVYDNVADATEQAVDIVDSVEPIDQHTRVYDEYYEIYESLYPALEDSFAANSAAIESAQDILDEA
notes: xylulokinase, Halorhabdus utahensis, gene Huta_2446 (1548 nucleotides); calculated subunit mass 55.1 kDa; Gene amplified from genomic DNA and cloned into pTA963; source: Haloferax volcanii H1209, purified (Ni-NTA, size-exclusion chromatography, Phenyl-Sepharose)
On to B5, for which the Km turned out to be 5680 µM in data set [4] (D-xylulose co-substrate (10 mM standard), pH 8.0, 2 M KCl, 10 mM MgCl2) and 310 µM in data set [7]. The “stoichiometry N” value in data set [6] was 2.
